The values below are quoted from earlier work in paper PMC5490247.

In data set [1] the target is IL-6R (Homo sapiens) (UniProt P08887).
Data set [2] has the same target. This is another data set of the same source.

Like-named read-outs stand apart in the source and are kept apart here.

Sequence of UniProt P08887 (P08887 20-355): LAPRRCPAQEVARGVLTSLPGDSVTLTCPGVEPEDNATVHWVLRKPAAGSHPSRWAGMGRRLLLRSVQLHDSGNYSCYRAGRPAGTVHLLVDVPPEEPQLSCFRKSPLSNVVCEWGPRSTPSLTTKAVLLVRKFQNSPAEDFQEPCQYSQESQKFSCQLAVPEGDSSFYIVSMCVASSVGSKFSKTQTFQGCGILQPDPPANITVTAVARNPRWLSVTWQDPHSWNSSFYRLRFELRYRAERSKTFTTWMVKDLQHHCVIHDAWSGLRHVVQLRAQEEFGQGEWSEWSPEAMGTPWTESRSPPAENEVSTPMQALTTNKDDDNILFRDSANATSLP

For IL-6 (from UniProt P05231), in the data set with IL-6R (Homo sapiens) [1], the Kd was 1 nM.

For Tocilizumab, in the data set with IL-6R (Homo sapiens) [2], the Kd was 2.54 nM.

As a reminder, the Kd is the constant that tells how readily two partners part at equilibrium.
